Assay results: article PMC6899773 (Chemistry (Weinheim an Der Bergstrasse, Germany), 2019)

Target: the molecule itself
Assay: AUC

B1: DC-SIGN extracellular domain (ECD) (domain or fragment, UniProt Q9NNX6 66-404, looked up)
chain: SISQEQSRQDAIYQNLTQLKAAVGELSEKSKLQEIYQELTQLKAAVGELPEKSKLQEIYQELTRLKAAVGELPEKSKLQEIYQELTWLKAAVGELPEKSKMQEIYQELTRLKAAVGELPEKSKQQEIYQELTRLKAAVGELPEKSKQQEIYQELTRLKAAVGELPEKSKQQEIYQELTQLKAAVERLCHPCPWEWTFFQGNCYFMSNSQRNWHDSITACKEVGAQLVVIKSAEEQNFLQLQSSRSNRFTWMGLSDLNQEGTWQWVDGSPLLPSFKQYWNRGEPNNVGEEDCAEFSGNGWNDDKCNLAKFWICKKSAASCSRDEEQFLSPAPATPNPPPA
With B1 the “stoichiometry N” value was 4.
